# Source: PMC6527180, “A chloride ring is an ancient evolutionary innovation mediating the assembly of the collagen IV scaffold of basement membranes” (The Journal of Biological Chemistry, 2019)
# T1: human collagen IV α1-chain NC1 domain, first domain of the single-chain trimer (residues 1438–1666) (human, UniProt P02462 1438-1666)
# T1 construct: collagen IV α1-chain NC1 domain, human, residues 1438–1666; Not a free protein: joined by a GTG linker to m5 on the single chain m1; written apart for the domain-domain contacts in the crystal structure; also called α1 NC1 domain; not shown: FLAG, N-terminal, kept
# T1 sequence (looked up): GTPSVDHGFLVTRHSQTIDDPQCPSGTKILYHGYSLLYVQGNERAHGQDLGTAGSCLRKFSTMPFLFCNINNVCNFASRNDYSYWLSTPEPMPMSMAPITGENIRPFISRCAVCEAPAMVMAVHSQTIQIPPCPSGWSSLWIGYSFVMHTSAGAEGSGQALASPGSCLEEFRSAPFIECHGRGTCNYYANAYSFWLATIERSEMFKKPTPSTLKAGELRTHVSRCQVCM
# T2: bovine α1 NC1 monomer (collagen IV α1-chain NC1 domain from bovine lens basement membrane) (bovine, UniProt Q7SIB2 1441-1669)
# T2 construct: collagen IV α1-chain NC1 domain, bovine, monomer from tissue-extracted NC1 hexamer; Used as a mixture with the α2 NC1 monomer; also called tissue-derived α1 NC1 monomer; NC1 monomers; source: purified from bovine lens basement membrane
# T2 sequence: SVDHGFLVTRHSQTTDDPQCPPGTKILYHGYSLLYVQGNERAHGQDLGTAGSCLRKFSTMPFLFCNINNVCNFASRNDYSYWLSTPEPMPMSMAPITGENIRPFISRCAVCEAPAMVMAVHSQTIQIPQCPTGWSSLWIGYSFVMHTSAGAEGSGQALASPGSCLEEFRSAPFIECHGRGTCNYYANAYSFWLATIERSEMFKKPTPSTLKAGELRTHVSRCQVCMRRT
# B1: bovine α2 NC1 monomer (collagen IV α2-chain NC1 domain from bovine lens basement membrane) (domain or fragment)
# chain: ISIGYLLVKHSQTDQEPMCPVGMNKLWSGYSLLYFEGQEKAHNQDLGLAGSCLARFSTMPFLYCNPGDVCYYASRNDKSYWLSTTAPLPMMPVAEEDIRPYISRCSVCEAPAVAIAVHSQDVSIPHCPAGWRSLWIGYSFLMHTAAGDEGGGQSLVSPGSCLEDFRATPFIECNGARGTCHYYANKYSFWLTTIPEQSFQGTPSADTLKAGLIRTHISRCQVCMKNL
# notes: collagen IV α2-chain NC1 domain, bovine, monomer from tissue-extracted NC1 hexamer; Used as a mixture with the α1 NC1 monomer; also called tissue-derived α2 NC1 monomer; NC1 monomers; source: purified from bovine lens basement membrane
# B2: human collagen IV α1-chain NC1 domain, third domain of the single-chain trimer (residues 1446–1669) (domain or fragment, UniProt P02462 1446-1669, looked up)
# chain: FLVTRHSQTIDDPQCPSGTKILYHGYSLLYVQGNERAHGQDLGTAGSCLRKFSTMPFLFCNINNVCNFASRNDYSYWLSTPEPMPMSMAPITGENIRPFISRCAVCEAPAMVMAVHSQTIQIPPCPSGWSSLWIGYSFVMHTSAGAEGSGQALASPGSCLEEFRSAPFIECHGRGTCNYYANAYSFWLATIERSEMFKKPTPSTLKAGELRTHVSRCQVCMRRT
# notes: collagen IV α1-chain NC1 domain, human, residues 1446–1669 (including final C-terminal residues); Not a free protein: joined by an APG linker to m5 on the single chain m1; also called α1 NC1 domain
# Experiments:
# [1] = biological target: T1, human collagen IV α1-chain NC1 domain, …; assay: crystal structure; X-ray, 1.9 Å, space group P4_(1)2_(1)2; protein 11 mg/ml in 5 mM Tris-HCl pH 7.5, 150 mM NaCl; hexamer by crystallographic 2-fold; conditions: both partners purified
# [2] = biological target: B2; assay: as above; conditions: both partners purified
# [3] = biological target: the molecule itself; assay: as above
# [4] = biological target: T2, bovine α1 NC1 monomer (collagen IV …); assay: co-IP; bovine α1 and α2 NC1 monomers incubated with sc121 NC1-trimer in the presence of Cl−; formed hexamers immunoprecipitated by the FLAG tag of the recombinant trimer and their composition analysed (Fig. S3); conditions: both partners purified
# [5] = biological target: B1; assay: as above; conditions: both partners purified
# [6] = biological target: the molecule itself; assay: SEC; in vitro hexamer assembly: 1 mg/ml in 25 mM Tris acetate pH 7.5, induced with 150 mM NaCl, 24 h at 37 °C unless varied (NaCl, protein, temperature, time); hexamer peak quantified by SEC; second-order fit T+T→H
# [7] = biological target: the molecule itself; assay: AUC; sedimentation equilibrium, 0.3 mg/ml in Cl−-free TNA (25 mM Tris acetate pH 7.5, 150 mM sodium acetate), 4 °C, 10,000 rpm, 48 h; trimer–to–hexamer self-association model (two single chains to one hexamer), trimer mass fixed to 74 kDa
# [8] = biological target: T2, bovine α1 NC1 monomer (collagen IV …); assay: SEC; in vitro hexamer assembly: 1 mg/ml in 25 mM Tris acetate pH 7.5, induced with 150 mM NaCl, 24 h at 37 °C unless varied (NaCl, protein, temperature, time); hexamer peak quantified by SEC; second-order fit T+T→H; conditions: both partners purified
binder,measurement,setting,value
"human collagen IV α2-chain NC1 domain, second domain of the single-chain trimer (residues 1490–1709) (domain or fragment, UniProt P08572 1490-1709, looked up, collagen IV α2-chain NC1 domain, human, residues 1490–1709; Not a free protein: joined by GTG (N-terminal side, to m4) and APG (C-terminal side, to m6) linkers on the single chain m1; also called α2 NC1 domain) YLLVKHSQTDQEPMCPVGMNKLWSGYSLLYFEGQEKAHNQDLGLAGSCLARFSTMPFLYCNPGDVCYYASRNDKSYWLSTTAPLPMMPVAEDEIKPYISRCSVCEAPAIAIAVHSQDVSIPHCPAGWRSLWIGYSFLMHTAAGDEGGGQSLVSPGSCLEDFRATPFIECNGGRGTCHYYANKYSFWLTTIPEQSFQGSPSADTLKAGLIRTHISRCQVCM",binding result,[1],binds
same,binding result,[2],binds
"single-chain α121 NC1 trimer (sc121 NC1-trimer) (other, human, collagen IV α1-chain NC1 domain, human, residues 1438–1666; artificial Gly–Thr–Gly linker between α1 and α2; collagen IV α2-chain NC1 domain, human, residues 1490–1709; artificial Ala–Pro–Gly linker between α2 and α1; collagen IV α1-chain NC1 domain, human, residues 1446–1669 (including final C-terminal residues); Vector-derived residues between the FLAG tag and the first α1 residue may be …) GTPSVDHGFLVTRHSQTIDDPQCPSGTKILYHGYSLLYVQGNERAHGQDLGTAGSCLRKFSTMPFLFCNINNVCNFASRNDYSYWLSTPEPMPMSMAPITGENIRPFISRCAVCEAPAMVMAVHSQTIQIPPCPSGWSSLWIGYSFVMHTSAGAEGSGQALASPGSCLEEFRSAPFIECHGRGTCNYYANAYSFWLATIERSEMFKKPTPSTLKAGELRTHVSRCQVCMGTGYLLVKHSQTDQEPMCPVGMNKLWSGYSLLYFEGQEKAHNQDLGLAGSCLARFSTMPFLYCNPGDVCYYASRNDKSYWLSTTAPLPMMPVAEDEIKPYISRCSVCEAPAIAIAVHSQDVSIPHCPAGWRSLWIGYSFLMHTAAGDEGGGQSLVSPGSCLEDFRATPFIECNGGRGTCHYYANKYSFWLTTIPEQSFQGSPSADTLKAGLIRTHISRCQVCMAPGFLVTRHSQTIDDPQCPSGTKILYHGYSLLYVQGNERAHGQDLGTAGSCLRKFSTMPFLFCNINNVCNFASRNDYSYWLSTPEPMPMSMAPITGENIRPFISRCAVCEAPAMVMAVHSQTIQIPPCPSGWSSLWIGYSFVMHTSAGAEGSGQALASPGSCLEEFRSAPFIECHGRGTCNYYANAYSFWLATIERSEMFKKPTPSTLKAGELRTHVSRCQVCMRRT",stoichiometry N,[3],2
same,binding result,[4],binds
same,binding result,[5],binds
same,kon,[6],3.45 ± 0.12 M⁻¹ s⁻¹
same,Kd,[7],37 µM
B1,binding result,[8],binds
B2,binding result,[1],binds
